Square brackets hold non-standard residues; d marks the D form. Ends that are not written are not given here. Arg(Me2a) = CN(C)C(=N)NCCC[C@H](N)C(=O)O; Lys(Me3) = C[N+](C)(C)CCCC[C@H](N)C(=O)O; Arg(Me2s) = CN=C(NC)NCCC[C@H](N)C(=O)O; pT = C[C@@H](OP(=O)(O)O)[C@H](N)C(=O)O; Lys(Me2) = CN(C)CCCC[C@H](N)C(=O)O; pS = N[C@@H](COP(=O)(O)O)C(=O)O; Lys(Me) = CNCCCC[C@H](N)C(=O)O; Me2a = not defined here

Assay [1] concerns the target T1, CaBdf1 BD2 (GST-tagged, wild-type) (Candida albicans (strain SC5314 / ATCC …, UniProt Q5A4W8)).
T1 chain: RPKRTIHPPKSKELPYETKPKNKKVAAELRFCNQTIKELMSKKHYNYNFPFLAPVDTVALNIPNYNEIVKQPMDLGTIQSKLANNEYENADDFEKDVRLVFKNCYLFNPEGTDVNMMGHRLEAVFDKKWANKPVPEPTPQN
The experiment in a line: histone peptide array (Active Motif MODified), 1 uM GST-tagged bromodomain, anti-GST detection, normalized mean intensity.

The target of assay [2] is T2, CaBdf1 BD1 (GST-tagged, wild-type) (Candida albicans (strain SC5314 / ATCC …, UniProt Q5A4W8)).
T2 chain: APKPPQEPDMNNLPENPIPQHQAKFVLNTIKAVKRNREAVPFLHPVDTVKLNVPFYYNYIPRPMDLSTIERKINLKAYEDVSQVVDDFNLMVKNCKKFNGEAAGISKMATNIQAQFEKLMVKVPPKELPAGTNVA
The description is as above.

Regarding SGRGKGGKGLGKGGAKRHR (S G Rme2s G Kac G G Kac G L G K G G A K R H R), the figures for the binding score in assay [1] and in assay [2] were 0.0322 and 0.0334, respectively.

Regarding A[Arg(Me2a)]T[Lys(Me3)]QTA[Arg(Me2a)][Lys(Me)]STGGKAPRKQ, the results for the binding score in assay [1] and in assay [2] were 0.00851 and 0.00435, respectively.

For the molecule ARTKQTARKSTGGKAPRKQ (A Rme2s T Kme1 Q T A R Kme3 S T G G K A P R K Q), the results for the binding score in assay [1] and in assay [2] were 0.00259 and 0.00326, respectively.

On to A[Arg(Me2s)]TK(Ac)QTARK(Me)STGGKAPRKQ, for which the binding score was 0.00333 in assay [1] and 0.00798 in assay [2].

As for PRKQLATKAARK(Me3)[pS]APATGG, the binding score in assay [1] stood at 0.00074; in assay [2], 0.0029.

As to PDPAK(Ac)SAPAPKKGSK(Ac)KAVT, the results for the binding score in assay [1] and in assay [2] were 0.00962 and 0.0323, respectively.

Turning to PDPAK(Ac)SAPAPKK(Ac)G[pS]KKAVT, the values for the binding score in assay [1] and in assay [2] were 0.00481 and 0.00979, respectively.

With AR[pT]K(Me3)QTARKSTGGKAPRKQ, the binding score amounted to 0.00296 in assay [1] and 0.00435 in assay [2].

AR(Me2a)TK(Me)QTAR(Me2s)K(Ac)STGGKAPRKQ (reading uncertain): the values for the binding score in assay [1] and in assay [2] were 0.0037 and 0.0341, respectively.

For the molecule ARTKQTARKSTGGKAPRKQ (A R T Kac Q T A Rme2s Kme3 S T G G K A P R K Q), the binding score worked out at 0.00407 in assay [1] and 0.00689 in assay [2].

Take ARTKQTARKSTGGKAPRKQ (A Rme2s T Kme3 Q T A Rme2a Kme1 S T G G K A P R K Q): the binding score was determined as 0.00222 in assay [1] and 0.0272 in assay [2].

For ARTKQTARKSTGGKAPRKQ (A R T Kme3 Q T A Rme2s Kme3 S T G G K A P R K Q), the binding score worked out at 0.00407 in assay [1] and 0.00399 in assay [2].

For the molecule ARTKQTARKSTGGKAPRKQ (A R T K Q T A R Kme1 S T G G K A P R K Q), the figures for the binding score in assay [1] and in assay [2] were 0.00407 and 0.00435, respectively.

On to SGRGK(Ac)QGGKARAKAKSRSS [H2a 1-19], for which the results for the binding score in assay [1] and in assay [2] were 0.0074 and 0.021, respectively.

As to ARTKQTARKSTGGKAPRKQ (A R T K Q T A Rme2a Kme2 pS pT G G K A P R K Q), the binding score in assay [1] turned out to be 0.00555; in assay [2] it was 0.00471.

With SGRGKGGKGLGKGGAKRHR (S G Rme2a G Kac G G Kac G L G K G G A K R H R), the values for the binding score in assay [1] and in assay [2] were 0.0411 and 0.0558, respectively.

Regarding ARTKQTARKSTGGKAPRKQ (A R T K Q T A R Kme2 S T G G K A P R K Q), the results for the binding score in assay [1] and in assay [2] were 0.00296 and 0.00109, respectively.

On to SGRGKGGKGLGKGGAKRHR (pS G Rme2s G K G G K G L G K G G A K R H R), for which the figures for the binding score in assay [1] and in assay [2] were 0.00333 and 0.00508, respectively.

In the case of A[Arg(Me2a)]T[Lys(Me3)]QTA[Arg(Me2s)][Lys(Me2)]STGGKAPRKQ, the binding score was found to be 0.00592 in assay [1] and 0.00326 in assay [2].

Take SGRGKGGKGLGKGGAKRHR (pS G Rme2s G Kac G G Kac G L G K G G A K R H R): the binding score in assay [1] came out at 0.0352; in assay [2], 0.054.

AR[pT]K(Ac)QTARKSTGGKAPRKQ: the binding score in assay [1] is 0.00333; in assay [2] it was 0.00725.

On to ARTKQTARKSTGGKAPRKQ (A Rme2s T Kme1 Q T A Rme2s Kme2 S T G G K A P R K Q), for which the binding score amounted to 0.00333 in assay [1] and 0.00254 in assay [2].

Turning to PRKQLATKAAR(Me2s)K(Me3)SAPATGG, the binding score in assay [1] is 0.0037; in assay [2] it was 0.00181.

With SGRGKGGKGLGKGGAKRHR (pS G Rme2a G K G G K G L G K G G A K R H R), the figures for the binding score in assay [1] and in assay [2] were 0.00148 and 0.00471, respectively.

With RKSAPATGGVKKPHRYRPG (R K S A P A T G G V Kme2 K P H R Y R P G) [H3 26-45], the binding score in assay [1] is 0.00555; in assay [2], 0.0058.

Turning to AR(Me2a)[pT]K(Ac)QTARKSTGGKAPRKQ (reading uncertain), the figures for the binding score in assay [1] and in assay [2] were 0.00111 and 0.00943, respectively.

In the case of AR(Me2a)[pT]K(Me2)QTARKSTGGKAPRKQ (reading uncertain), the binding score in assay [1] came out at 0; in assay [2], 0.00181.

For ARTKQTA[Arg(Me2a)]K(Me)[pS][pT]GGKAPRKQ, the values for the binding score in assay [1] and in assay [2] were 0.0037 and 0.00471, respectively.

Consider SGRGKGGKGLGKGGAKRHR (pS G Rme2a G Kac G G K G L G K G G A K R H R), for which the results for the binding score in assay [1] and in assay [2] were 0.00444 and 0.0105, respectively.

As to ARTKQTARKSTGGKAPRKQ (A R T K Q T A R K pS pT G G K A P R K Q), the binding score amounted to 0.00407 in assay [1] and 0.00326 in assay [2].

For PRKQLATKAAR(Me2a)K(Ac)SAPATGG (reading uncertain), the binding score is 0.00999 in assay [1] and 0.0189 in assay [2].

With PRKQLATKAA[Arg(Me2a)]K(Me)SAPATGG, the values for the binding score in assay [1] and in assay [2] were 0.00444 and 0.00399, respectively.

On to ARTKQTARKSTGGKAPRKQ (A R T K Q T A R Kac pS T G G K A P R K Q), for which the binding score in assay [1] turned out to be 0.00407; in assay [2] it was 0.00435.

Consider AR(Me2s)TK(Ac)QTARKSTGGKAPRKQ, for which the binding score in assay [1] was determined as 0.00074; in assay [2], 0.00616.

(Values after article PMC5454392, “Selective BET bromodomain inhibition as an antifungal therapeutic strategy” (Nature Communications, 2017).)
